{
  "source": "paper PMC12594925",
  "about": "(Nature Communications, 2025)",
  "key": {"[1]": {"molecular_target": "MOR in M-cells (Rattus norvegicus, UniProt P33535)", "sequence (P33535 whole entry)": "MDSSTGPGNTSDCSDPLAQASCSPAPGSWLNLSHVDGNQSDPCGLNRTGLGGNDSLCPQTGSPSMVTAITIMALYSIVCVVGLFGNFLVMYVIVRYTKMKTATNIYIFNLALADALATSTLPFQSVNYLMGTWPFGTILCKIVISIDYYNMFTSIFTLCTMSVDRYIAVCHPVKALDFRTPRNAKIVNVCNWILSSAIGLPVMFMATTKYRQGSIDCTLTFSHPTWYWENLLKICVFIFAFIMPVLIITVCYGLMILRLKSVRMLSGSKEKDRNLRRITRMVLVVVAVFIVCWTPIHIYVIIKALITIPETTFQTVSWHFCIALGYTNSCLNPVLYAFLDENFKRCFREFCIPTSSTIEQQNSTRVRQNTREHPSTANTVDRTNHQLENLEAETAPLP", "assay": "Ca2+ mobilization via Gqi5", "assay_type": "cell-based", "conditions": "[FMax-Fb]/Fb of Fluo-4"}, "[2]": {"molecular_target": "MOR and DOR in MD-cells (Rattus norvegicus, UniProt P33535)", "sequence (P33535 whole entry)": "as above", "assay": "Ca2+ mobilization via Gqi5", "assay_type": "cell-based", "conditions": "increase greater with DAMGO than morphine"}, "[3]": {"molecular_target": "KOR in K-cells (Rattus norvegicus, UniProt P34975)", "sequence (P34975 whole entry)": "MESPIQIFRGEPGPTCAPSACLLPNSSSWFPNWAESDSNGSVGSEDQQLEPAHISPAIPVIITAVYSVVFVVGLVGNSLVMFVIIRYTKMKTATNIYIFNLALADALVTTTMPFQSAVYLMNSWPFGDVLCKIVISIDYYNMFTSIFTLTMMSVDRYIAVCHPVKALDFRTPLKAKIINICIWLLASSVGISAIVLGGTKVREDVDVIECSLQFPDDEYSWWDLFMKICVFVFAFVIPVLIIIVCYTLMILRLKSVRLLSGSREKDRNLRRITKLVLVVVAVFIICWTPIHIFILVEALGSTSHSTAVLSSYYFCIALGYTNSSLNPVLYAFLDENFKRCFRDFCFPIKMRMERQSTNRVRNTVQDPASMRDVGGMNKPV", "assay": "Ca2+ mobilization via Gqi5", "assay_type": "cell-based"}, "[4]": {"molecular_target": "DOR-MOR (Rattus norvegicus, UniProt P33535)", "sequence (P33535 whole entry)": "as the sequence (P33535 whole entry) above", "assay": "cAMPinG1 cAMP inhibition assay, cells expressing DOR-MOR", "assay_type": "cell-based", "conditions": "7 µM forskolin then 50 nM DAMGO; MOR and DOR at 5-10 fluorescent spots/µm2"}, "[5]": {"molecular_target": "DOR in D-cells (Rattus norvegicus, UniProt P33533)", "sequence (P33533 whole entry)": "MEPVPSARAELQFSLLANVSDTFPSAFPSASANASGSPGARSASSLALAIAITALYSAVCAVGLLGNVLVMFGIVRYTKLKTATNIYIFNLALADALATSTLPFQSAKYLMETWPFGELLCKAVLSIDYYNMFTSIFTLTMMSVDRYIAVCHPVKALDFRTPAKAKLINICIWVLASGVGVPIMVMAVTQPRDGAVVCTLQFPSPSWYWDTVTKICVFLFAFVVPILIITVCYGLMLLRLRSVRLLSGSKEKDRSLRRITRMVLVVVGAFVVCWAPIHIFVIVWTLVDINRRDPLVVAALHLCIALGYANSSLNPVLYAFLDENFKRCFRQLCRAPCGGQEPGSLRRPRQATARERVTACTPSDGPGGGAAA"}, "[6]": {"molecular_target": "MOR-MOR (MM) homodimer (Rattus norvegicus, UniProt P33535)", "sequence (P33535 whole entry)": "as the sequence (P33535 whole entry) above", "conditions": "cited from earlier work"}, "[7]": {"molecular_target": "DOR-MOR (DM) heterodimer (Rattus norvegicus, UniProt P33533+P33535)", "sequence (P33533 whole entry)": "as the sequence (P33533 whole entry) above", "sequence (P33535 whole entry)": "as the sequence (P33535 whole entry) above", "assay_type": "binding", "conditions": "for Effect on DM heterodimerization: DOR and MOR at 0.5-1.0 spots/µm2"}, "[8]": {"molecular_target": "DOR-KOR (DK) heterodimer (Rattus norvegicus, UniProt P33533+P34975)", "sequence (P33533 whole entry)": "as the sequence (P33533 whole entry) above", "sequence (P34975 whole entry)": "as the sequence (P34975 whole entry) above", "assay": "DK colocalization index, two-color single-molecule TIRF imaging", "assay_type": "binding"}, "[9]": {"molecular_target": "DOR (Rattus norvegicus, UniProt P33533)", "sequence (P33533 whole entry)": "as the sequence (P33533 whole entry) above", "assay": "Colocalization of expressed TM peptides with WT-DOR", "assay_type": "binding", "conditions": "all molecules expressed at 0.5–1.0 fluorescent spots/µm2"}, "[10]": {"molecular_target": "MOR (Rattus norvegicus, UniProt P33535)", "sequence (P33535 whole entry)": "as the sequence (P33535 whole entry) above", "assay": "Colocalization of expressed TM peptides with WT-MOR", "conditions": "both expressed at 0.5–1.0 fluorescent spots/µm2"}},
  "data": [
    {"compound": "C[C@@H](NC(=O)[C@@H](N)Cc1ccc(O)cc1)C(=O)NCC(=O)N(C)[C@@H](Cc1ccccc1)C(=O)NCCO", "note": "[DAMGO]", "values": [
      {"measurement": "Ca2+ signal induced by M-agonist", "setting": "[1]", "result": "induced comparable Ca²⁺ signals"},
      {"measurement": "Ca2+ response to M-agonist compared to M-cells", "setting": "[2]", "result": "enhanced Ca²⁺ responses"},
      {"measurement": "Ca2+ response to M-agonist", "setting": "[3]", "result": "No response was evident"},
      {"measurement": "DAMGO-induced cAMP concentration decrease via Gi", "setting": "[4]", "result": "greater when DOR was co-expressed"},
      {"measurement": "Ca2+ response to M-agonist", "setting": "[5]", "result": "No response was evident"},
      {"measurement": "Effect on MM homodimerization and MM dimer lifetime", "setting": "[6]", "result": "enhanced MM homodimerization and slightly elongated the MM dimer lifetime"}
    ]},
    {"compound": "EL3-domain peptide of MOR: peptide with the MOR EL3 sequence (IIKALVTIPETTFQTV; UniProt P35372 303-318, looked up, fragment)", "values": [
      {"measurement": "Blocking of DM heterodimers", "setting": "[7]; soluble EL3-domain peptides (Supplementary Fig. 2b)", "result": "failed to block DM heterodimers"},
      {"measurement": "Blocking of DK heterodimerization (DK colocalization index)", "setting": "[8]", "result": "but not that of MOR, block DK heterodimerization"}
    ]},
    {"compound": "Nterm-TM1^MOR: TM1^MOR construct also containing amino acids 53-70 before the TM1 domain (GGRDSLCPPTGSPSMITAITIMALYSIVCVVGLFGNFLVMYVIVRYT; UniProt P35372 53-99, looked up, fragment)", "values": [
      {"measurement": "Effect on DM heterodimerization", "setting": "[7]", "result": "suppressed DM heterodimerization in an expression level-dependent manner"},
      {"measurement": "Colocalization with WT-DOR", "setting": "[9]", "result": "colocalized with DOR, like the full-length MOR"}
    ]},
    {"compound": "TM1^DOR: DOR TM1 peptide expressed in the PM (ITALYSAVCAVGLLGNVLVMFGIVRYTKM; UniProt P41143 52-80, looked up, fragment)", "values": [
      {"measurement": "Colocalization with WT-MOR", "setting": "[10]", "result": "moderately colocalized with MOR"}
    ]},
    {"compound": "TM1^MOR: membrane-integral peptide, MOR TM1 (amino acids 71-99), expressed in the PM (ITIMALYSIVCVVGLFGNFLVMYVIVRYT; UniProt P35372 71-99, looked up, fragment)", "values": [
      {"measurement": "Effect on DM heterodimerization", "setting": "[7]", "result": "suppressed DM heterodimerization in an expression level-dependent manner"},
      {"measurement": "Colocalization with WT-DOR", "setting": "[9]", "result": "colocalized with DOR, like the full-length MOR"}
    ]}
  ]
}
